In patent publication US20180291110A1 (Hoffmann-La Roche, published 2018):

B1: 2/99 VH0(rb)/VL0(rb) (antibody, V domains shown)
VH: QSMEESGGRLVTPGTPLTLTCTVSGFSLSSYAMSWVRQAPGKGLEWIGYIWSGGSTDYASWAKGRFTISKTSTTVDLKITSPTTEDTATYFCARRYGTSYPDYGDANGFDPWGPGTLVTVSS
VL: AYDMTQTPASVEVAVGGTVTIKCQASQSISSYLSWYQQKPGQRPKLLIYRASTLASGVSSRFKGSGSGTQFTLTISGVECADAATYYCQQCYSSSNVDNTFGGGTEVVVKR
notes: 0 (rb) read as the rabbit parental domains of clone 2/99
B2: 2/99 VH1/VL1 (antibody, V domains shown)
VH: VQLVETGGGLIQPGGSLRLSCAASGFSLSSYAMSWVRQAPGKGLEWVGYIWSGGSTDYADSVKGRFTISRDNSKNTLYLQMNSLRAEDTAVYYCARRYGTSYPDYGDANGFDPWGQGTLVTVSS
VL: DIQMTQSPSSLSASVGDRVTITCRASQSISSYLNWYQQKPGKAPKLLIYRASSLQSGVPSRFSGSGSGTDFTLTISSLQPEDFATYYCQQSYSSSNVDNTFGGGTKVEIK
B3: 2/99 VH1/VL2 (antibody, V domains shown)
VH: VQLVETGGGLIQPGGSLRLSCAASGFSLSSYAMSWVRQAPGKGLEWVGYIWSGGSTDYADSVKGRFTISRDNSKNTLYLQMNSLRAEDTAVYYCARRYGTSYPDYGDANGFDPWGQGTLVTVSS
VL: DIQMTQSPSSLSASVGDRVTITCRASQSISSYLNWYQQKPGKAPKLLIYRASTLASGVPSRFSGSGSGTDFTLTISSLQPEDFATYYCQQSYSSSNVDNTFGGGTKVEIK
B4: 2/99 VH20/VL1 (antibody, V domains shown)
VH: QSMQESGPGLVKPSQTLSLTCTVSGFSLSSYAMSWIRQHPGKGLEWIGYIWSGGSTDYAPSLKSRVTISVDTSKNQVSLKLSSVTAADTAVYYCARRYGTSYPDYGDANGFDPWGQGTLVTVSS
VL: DIQMTQSPSSLSASVGDRVTITCRASQSISSYLNWYQQKPGKAPKLLIYRASSLQSGVPSRFSGSGSGTDFTLTISSLQPEDFATYYCQQSYSSSNVDNTFGGGTKVEIK
B5: 2/99 VH8/VL1 (antibody, V domains shown)
VH: QQLVETGGGLIQPGGSLRLSCAASGFSLSSYAMSWVRQAPGKGLEWIGYIWSGGSTDYASWAKGRFTISKTSTTLYLQMNSLRAEDTAVYYCARRYGTSYPDYGDANGFDPWGQGTLVTVSS
VL: DIQMTQSPSSLSASVGDRVTITCRASQSISSYLNWYQQKPGKAPKLLIYRASSLQSGVPSRFSGSGSGTDFTLTISSLQPEDFATYYCQQSYSSSNVDNTFGGGTKVEIK
B6: 2/99 VH17/VL1 (antibody, V domains shown)
VH: QQLQESGPGLVKPSETLSLTCTVSGFSLSSYAMSWVRQPPGKGLEWIGYIWSGGSTDYNPSLKSRVTISKDTSKNQVSLKLSSVTAADTAVYYCARRYGTSYPDYGDANGFDPWGPGTLVTVSS
VL: DIQMTQSPSSLSASVGDRVTITCRASQSISSYLNWYQQKPGKAPKLLIYRASSLQSGVPSRFSGSGSGTDFTLTISSLQPEDFATYYCQQSYSSSNVDNTFGGGTKVEIK
B7: 2/99 VH19/VL1 (antibody, V domains shown)
VH: QSMQESGPGLVKPSQTLSLTCTVSGFSLSSYAMSWIRQHPGKGLEWIGYIWSGGSTDYAPSLKSRVTISVDTSKNQFSLKLSSVTAADTAVYYCARRYGTSYPDYGDANGFDPWGQGTLVTVSS
VL: DIQMTQSPSSLSASVGDRVTITCRASQSISSYLNWYQQKPGKAPKLLIYRASSLQSGVPSRFSGSGSGTDFTLTISSLQPEDFATYYCQQSYSSSNVDNTFGGGTKVEIK
B8: 2/99 VH18/VL1 (antibody, V domains shown)
VH: QVQLQESGPGLVKPSQTLSLTCTVSGFSLSSYAMSWIRQHPGKGLEWIGYIWSGGSTDYAPSLKSRVTISVDTSKNQFSLKLSSVTAADTAVYYCARRYGTSYPDYGDANGFDPWGQGTLVTVSS
VL: DIQMTQSPSSLSASVGDRVTITCRASQSISSYLNWYQQKPGKAPKLLIYRASSLQSGVPSRFSGSGSGTDFTLTISSLQPEDFATYYCQQSYSSSNVDNTFGGGTKVEIK
B9: 2/99 VH16/VL1 (antibody, V domains shown)
VH: QQLQESGPGLVKPSETLSLTCTVSGFSLSSYAMSWVRQPPGKGLEWIGYIWSGGSTDYNPSLKSRVTISVDTSKNQVSLKLSSVTAADTAVYYCARRYGTSYPDYGDANGFDPWGPGTLVTVSS
VL: DIQMTQSPSSLSASVGDRVTITCRASQSISSYLNWYQQKPGKAPKLLIYRASSLQSGVPSRFSGSGSGTDFTLTISSLQPEDFATYYCQQSYSSSNVDNTFGGGTKVEIK
B10: 2/99 VH13/VL1 (antibody, V domains shown)
VH: QVQLQESGPGLVKPSETLSLTCTVSGFSLSSYAMSWIRQPPGKGLEWIGYIWSGGSTDYNPSLKSRVTISVDTSKNQVSLKLSSVTAADTAVYYCARRYGTSYPDYGDANGFDPWGQGTLVTVSS
VL: DIQMTQSPSSLSASVGDRVTITCRASQSISSYLNWYQQKPGKAPKLLIYRASSLQSGVPSRFSGSGSGTDFTLTISSLQPEDFATYYCQQSYSSSNVDNTFGGGTKVEIK
B11: 2/99 VH11/VL1 (antibody, V domains shown)
VH: QQLLESGGGLVQPGGSLRLSCAASGFSLSSYAMSWVRQAPGKGLEWVGYIWSGGSTDYADSVKGRFTISRDNSKNTLYLQMNSLRAEDTAVYYCARRYGTSYPDYGDANGFDPWGQGTLVTVSS
VL: DIQMTQSPSSLSASVGDRVTITCRASQSISSYLNWYQQKPGKAPKLLIYRASSLQSGVPSRFSGSGSGTDFTLTISSLQPEDFATYYCQQSYSSSNVDNTFGGGTKVEIK
B12: 2/99 VH22/VL1 (antibody, V domains shown)
VH: QSMQESGPGLVKPSQTLSLTCTVSGFSLSSYAMSWVRQHPGKGLEWIGYIWSGGSTDYASWAKSRVTISVDTSKNQVSLKLSSVTAADTAVYYCARRYGTSYPDYGDANGFDPWGQGTLVTVSS
VL: DIQMTQSPSSLSASVGDRVTITCRASQSISSYLNWYQQKPGKAPKLLIYRASSLQSGVPSRFSGSGSGTDFTLTISSLQPEDFATYYCQQSYSSSNVDNTFGGGTKVEIK
B13: 2/99 VH7/VL1 (antibody, V domains shown)
VH: QQLVETGGGLIQPGGSLRLSCAASGFSLSSYAMSWVRQAPGKGLEWIGYIWSGGSTDYASWAKGRFTISRDNSKNTLYLQMNSLRAEDTAVYYCARRYGTSYPDYGDANGFDPWGQGTLVTVSS
VL: DIQMTQSPSSLSASVGDRVTITCRASQSISSYLNWYQQKPGKAPKLLIYRASSLQSGVPSRFSGSGSGTDFTLTISSLQPEDFATYYCQQSYSSSNVDNTFGGGTKVEIK
B14: 2/99 VH23-DANG/VL1 (antibody, V domains shown)
VH: QSMQESGPGLVKPSQTLSLTCTVSGFSLSSYAMSWIRQHPGKGLEWIGYIWSGGSTDYASWAKSRVTISKTSTTVSLKLSSVTAADTAVYYCARRYGTSYPDYGDANGFDPWGQGTLVTVSS
VL: DIQMTQSPSSLSASVGDRVTITCRASQSISSYLNWYQQKPGKAPKLLIYRASSLQSGVPSRFSGSGSGTDFTLTISSLQPEDFATYYCQQSYSSSNVDNTFGGGTKVEIK
B15: 2/99 VH9/VL1 (antibody, V domains shown)
VH: QQLLESGGGLVQPGGSLRLSCAASGFTFSSYAMSWVRQAPGKGLEWVGYIWSGGSTDYADSVKGRFTISRDNSKNTLYLQMNSLRAEDTAVYYCAKRYGTSYPDYGDANGFDPWGQGTLVTVSS
VL: DIQMTQSPSSLSASVGDRVTITCRASQSISSYLNWYQQKPGKAPKLLIYRASSLQSGVPSRFSGSGSGTDFTLTISSLQPEDFATYYCQQSYSSSNVDNTFGGGTKVEIK
B16: 2/99 VH12/VL1 (antibody, V domains shown)
VH: QVQLQESGPGLVKPSETLSLTCTVSGFSLSSYAMSWIRQPPGKGLEWIGYIWSGGSTDYNPSLKSRVTISVDTSKNQFSLKLSSVTAADTAVYYCARRYGTSYPDYGDANGFDPWGQGTLVTVSS
VL: DIQMTQSPSSLSASVGDRVTITCRASQSISSYLNWYQQKPGKAPKLLIYRASSLQSGVPSRFSGSGSGTDFTLTISSLQPEDFATYYCQQSYSSSNVDNTFGGGTKVEIK
B17: 2/99 VH5/VL1 (antibody, V domains shown)
VH: QSMEETGGGLIQPGGSLRLSCAASGFSLSSYAMSWVRQAPGKGLEWVGYIWSGGSTDYADSVKGRFTISRDNSKNTLYLQMNSLRAEDTAVYYCARRYGTSYPDYGDANGFDPWGPGTLVTVSS
VL: DIQMTQSPSSLSASVGDRVTITCRASQSISSYLNWYQQKPGKAPKLLIYRASSLQSGVPSRFSGSGSGTDFTLTISSLQPEDFATYYCQQSYSSSNVDNTFGGGTKVEIK
B18: 2/99 VH2/VL2 (antibody, V domains shown)
VH: EVQLVETGGGLIQPGGSLRLSCAASGFSLSSYAMSWVRQAPGKGLEWVGYIWSGGSTDYADSVKGRFTISRDNSKNTLYLQMNSLRAEDTAVYYCARRYGTSYPDYGDANGFDPWGQGTLVTVSS
VL: DIQMTQSPSSLSASVGDRVTITCRASQSISSYLNWYQQKPGKAPKLLIYRASTLASGVPSRFSGSGSGTDFTLTISSLQPEDFATYYCQQSYSSSNVDNTFGGGTKVEIK
B19: 2/99 VH2/VL1 (antibody, V domains shown)
VH: EVQLVETGGGLIQPGGSLRLSCAASGFSLSSYAMSWVRQAPGKGLEWVGYIWSGGSTDYADSVKGRFTISRDNSKNTLYLQMNSLRAEDTAVYYCARRYGTSYPDYGDANGFDPWGQGTLVTVSS
VL: DIQMTQSPSSLSASVGDRVTITCRASQSISSYLNWYQQKPGKAPKLLIYRASSLQSGVPSRFSGSGSGTDFTLTISSLQPEDFATYYCQQSYSSSNVDNTFGGGTKVEIK
B20: 2/99 VH15/VL1 (antibody, V domains shown)
VH: QQLQESGPGLVKPSETLSLTCTVSGFSLSSYAMSWVRQPPGKGLEWIGYIWSGGSTDYNPSLKSRVTISVDTSKNQVSLKLSSVTAADTAVYYCARRYGTSYPDYGDANGFDPWGQGTLVTVSS
VL: DIQMTQSPSSLSASVGDRVTITCRASQSISSYLNWYQQKPGKAPKLLIYRASSLQSGVPSRFSGSGSGTDFTLTISSLQPEDFATYYCQQSYSSSNVDNTFGGGTKVEIK
B21: 2/99 VH21/VL1 (antibody, V domains shown)
VH: QSMQESGPGLVKPSQTLSLTCTVSGFSLSSYAMSWIRQHPGKGLEWIGYIWSGGSTDYASWAKSRVTISVDTSKNQVSLKLSSVTAADTAVYYCARRYGTSYPDYGDANGFDPWGQGTLVTVSS
VL: DIQMTQSPSSLSASVGDRVTITCRASQSISSYLNWYQQKPGKAPKLLIYRASSLQSGVPSRFSGSGSGTDFTLTISSLQPEDFATYYCQQSYSSSNVDNTFGGGTKVEIK
B22: 2/99 VH6/VL1 (antibody, V domains shown)
VH: QQLVETGGGLIQPGGSLRLSCAASGFSLSSYAMSWVRQAPGKGLEWIGYIWSGGSTDYADSVKGRFTISRDNSKNTLYLQMNSLRAEDTAVYYCARRYGTSYPDYGDANGFDPWGQGTLVTVSS
VL: DIQMTQSPSSLSASVGDRVTITCRASQSISSYLNWYQQKPGKAPKLLIYRASSLQSGVPSRFSGSGSGTDFTLTISSLQPEDFATYYCQQSYSSSNVDNTFGGGTKVEIK

The binders below were run against T1, human transferrin receptor (recombinant, for surface plasmon resonance) (human, UniProt P02786 89-760) (assay: SPR 25C).
T1 construct: also called huTfR; human transferrin receptor-biotinylated
T1 sequence (P02786 89-760 limits assumed): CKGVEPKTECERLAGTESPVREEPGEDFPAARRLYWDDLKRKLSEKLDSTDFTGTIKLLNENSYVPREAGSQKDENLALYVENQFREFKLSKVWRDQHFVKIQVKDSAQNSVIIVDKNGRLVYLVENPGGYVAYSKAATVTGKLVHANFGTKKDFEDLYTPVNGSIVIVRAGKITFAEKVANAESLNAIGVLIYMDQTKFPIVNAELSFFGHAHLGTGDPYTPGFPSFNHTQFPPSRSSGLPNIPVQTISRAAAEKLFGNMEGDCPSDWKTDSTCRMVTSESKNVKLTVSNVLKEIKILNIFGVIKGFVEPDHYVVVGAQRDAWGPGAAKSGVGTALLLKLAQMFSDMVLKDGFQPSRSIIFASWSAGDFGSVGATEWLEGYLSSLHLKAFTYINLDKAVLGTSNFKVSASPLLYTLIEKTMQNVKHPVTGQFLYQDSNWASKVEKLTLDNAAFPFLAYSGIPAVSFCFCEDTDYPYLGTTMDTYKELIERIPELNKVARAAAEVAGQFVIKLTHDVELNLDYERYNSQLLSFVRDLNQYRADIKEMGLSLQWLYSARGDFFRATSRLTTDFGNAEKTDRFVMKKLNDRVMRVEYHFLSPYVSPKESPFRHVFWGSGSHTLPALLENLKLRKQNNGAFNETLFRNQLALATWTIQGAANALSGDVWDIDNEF

Binder	koff [s⁻¹]
B1	0.000434
B2	0.001
B3	0.00286
B4	0.001
B5	0.00319
B6	0.00433
B7	0.001
B8	0.001
B9	0.00771
B10	0.001
B11	0.001
B12	0.00578
B13	0.00752
B14	0.0028
B15	0.00694
B16	0.001
B17	0.001
B18	0.00275
B19	0.001
B20	0.00772
B21	0.00771
B22	0.001
